From patent US20190194722, “METHOD” (Oxford Nanopore Technologies Ltd., published 2019)

Legend:
MuA transposase [1] = biological target: T1, MuA transposase (UniProt P07636 P07636:1-663); assay: MuA stays bound after transposition into PhiX174 at room temperature (no Bioanalyser peak); released at 75 C; 10 mM MgCl2, 110 mM NaCl, pH 8; conditions: tags: ThermoFisher Scientific; chain copies: 4; 3' overhang on bottom strand
Description: Transpososome 1 and transpososome 2 were each mixed to 50 nM with 1.5 ug of PhiX174 RFI DNA (New England Biolabs) in 25 mM Tris.HCl pH8, 110 mM NaCl and 10 mM MgCl₂ in a 30 ul reaction in a 0.2 ml PCR tube. Each reaction was incubated at room temperature for 2 minutes before being split […] to form 3 tubes of 10 uls for each. 1 tube of each transpososome was incubated at 75° C. for 5 minutes, 1 tube of each transpososome was left at room temperature for 5 minutes with nothing added. Hel308Mbu-E284C/S615C-STrEP(C) (1 uM) was added to the final tubes along with 10 mM of ATP (Sigma-Aldrich) and incubated at room temperature for 5 minutes. 1 ul of each reaction was then analysed on the Agilent 2100 Bioanalyser 12,000 bp setting, along with 1 ul of unmodified PhiX.

MuA transposase [2] = biological target: T1, MuA transposase; assay: MuA stays bound at room temperature; tagmentation peak only after 75 C; MgCl2 buffer; conditions: tags: ThermoFisher Scientific; chain copies: 4; 5' bottom strand flap, 12 nt 5' tail on top strand, 10 nt 3' tail on bottom strand
Description: A transposome complex was formed but addition of 1 ul of the MuA adapter, 4.5 ul of nuclease free water, 2 ul of 5× transposome buffer (125 mM Tris pH 8, 550 mM NaCl, 2.5 mM EDTA, 50% glycerol, 0.25% Triton-X100) and 2.5 ul of concentrated MuA transposase (Thermofisher). The mixture was then incubated at 30° C. for 1.5 hours.
A transposition reaction, containing 10 ul of 5× transposase buffer (125 mM Tris pH 8, 550 mM NaCl, 50 mM MgCl2), 5 ul transposome, 2.5 ug PhiX RFI (NEB) and nuclease free water to 50 ul, was then carried out at room temperature for 10 minutes. After 10 mins 6.25 ul of 100 mM rATP was added and the reaction was split into 5×11.25 ul. To sample (i) and (ii) 1.25 ul of nuclease free water was added; to sample (iii) 1.25 ul of Hel308Mbu-E284C-STrEP(C) (SEQ ID NO: 10 with mutation E284C with a streptavidin tag attached at its C terminus) was added; to sample (iv) 1.25 ul of T4 Dda—(E94C/F98W/C109A/C136A/A360C) (SEQ ID NO: 97 with mutations E94C/F98W/C109A/C136A/A360C and then (ΔM1)G1G2 (where (ΔM1)G1G2=deletion of M1 and then addition G1 and G2), was added; to sample (v) 1.25 ul of UvrD Eco-(E117C/M380C)-STrEP (SEQ ID NO: 122 with mutations E177C/M380C with a streptavidin tag attached at the C terminus). Samples (i), (iii), (iv) and (v) were then left at room temperature for 10 mins while sample (ii) was left at 75° C. for 10 mins. […]

T1 sequence (P07636 whole entry, one chain of several): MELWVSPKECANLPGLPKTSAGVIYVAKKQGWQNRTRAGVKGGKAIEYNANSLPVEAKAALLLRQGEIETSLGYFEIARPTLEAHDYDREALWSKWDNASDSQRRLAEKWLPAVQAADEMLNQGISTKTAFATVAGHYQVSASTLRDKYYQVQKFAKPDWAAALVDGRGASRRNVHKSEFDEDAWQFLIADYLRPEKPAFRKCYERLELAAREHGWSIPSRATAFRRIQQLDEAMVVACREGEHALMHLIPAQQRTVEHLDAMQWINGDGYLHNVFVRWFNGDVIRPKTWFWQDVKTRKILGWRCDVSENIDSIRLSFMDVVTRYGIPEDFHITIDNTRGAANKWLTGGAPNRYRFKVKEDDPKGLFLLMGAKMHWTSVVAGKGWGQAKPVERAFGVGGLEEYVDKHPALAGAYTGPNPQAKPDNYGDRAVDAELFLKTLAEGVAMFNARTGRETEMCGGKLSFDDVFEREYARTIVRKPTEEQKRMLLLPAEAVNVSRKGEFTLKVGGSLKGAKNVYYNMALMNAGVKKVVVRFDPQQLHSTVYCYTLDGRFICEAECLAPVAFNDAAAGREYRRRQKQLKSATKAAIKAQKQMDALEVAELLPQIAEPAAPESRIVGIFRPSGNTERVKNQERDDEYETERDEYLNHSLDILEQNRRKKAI

| Binder | binding result (MuA transposase [1]) | binding result (MuA transposase [2]) |
| --- | --- | --- |
| transposon 2 (dsDNA) DNA 1: GTTTTCGCATTTATCGTGAAACGCTTTCGCGTTTTTCGTGCGCCGCTTCA DNA 2: GATCTGAAGCGGCGCACGAAAAACGCGAAAGCGTTTCACGATAAATGCGAAAACTTTTTTTTTT | binds |  |
| MuA adapter (Example 2) (dsDNA) DNA 1: GATCTGAAGCGGCGCACGAAAAACGCGAAAGCGTTTCACGATAAATGCGAAAACTTTTTTTTTT DNA 2: TGCTGATATTGCGTTTTCGCATTTATCGTGAAACGCTTTCGCGTTTTTCGTGCGCCGCTTCA |  | binds |
